Legend:
[1] = target: T1, PD-L1 extracellular domain fragment (from F19 to R238) (Homo sapiens, UniProt Q9NZQ7); assay: SPR; BIAcore T100, CM5 chip, about 1000 RU of PD-L1 immobilised, scFv flowed at 5 nM to 80 nM, 25 °C, HBS-EP (150 mM NaCl, 10 mM HEPES, pH 7.4, 0.005% Tween-20), 1:1 Langmuir model; conditions: both partners purified
T1 construct: PD-L1 extracellular domain fragment, F19 to R238; probably the start methionine of the E. coli construct (surmise); also called two-Ig-domain PD-L1

[2] = target: T2, two-Ig-domain PD-L1 (Homo sapiens, UniProt Q9NZQ7); assay: SPR; PD-L1 protein immobilised on the chip, scFvs of the anti-PD-L1 MAbs flowed through; BIAcore T100; conditions: both partners purified
T2 construct: PD-L1, the two Ig domains (IgV and the second Ig domain)
T2 sequence (Q9NZQ7 19-238): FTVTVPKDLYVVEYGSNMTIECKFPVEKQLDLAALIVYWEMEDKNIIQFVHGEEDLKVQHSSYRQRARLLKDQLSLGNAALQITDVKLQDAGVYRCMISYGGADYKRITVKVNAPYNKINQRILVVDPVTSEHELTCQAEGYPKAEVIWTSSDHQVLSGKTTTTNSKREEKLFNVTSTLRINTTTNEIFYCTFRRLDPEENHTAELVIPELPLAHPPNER

T1 sequence (Q9NZQ7 19-238): as above

B1: avelumab-scFv (scFv, V domains shown)
VH: EVQLLESGGGLVQPGGSLRLSCAASGFTFSSYIMMWVRQAPGKGLEWVSSIYPSGGITFYADTVKGRFTISRDNSKNTLYLQMNSLRAEDTAVYYCARIKLGTVTTVDYWGQGTLVTVSS
VL: QSALTQPASVSGSPGQSITISCTGTSSDVGGYNYVSWYQQHPGKAPKLMIYDVSNRPSGVSNRFSGSKSGNTASLTISGLQAEDEADYYCSSYTSSSTRVFGTGTKVTVL
notes: VL of avelumab; avelumab-scFv 'obtained as durvalumab-scFv'; VH of avelumab; Order VL-linker-VH is stated for durvalumab-scFv only; also called avalumab-scFv
- koff [1]: 7.53e-05 s⁻¹
- kon [1]: 1.61e+06 M⁻¹ s⁻¹

B2: scFv of avelumab (scFv, V domains shown)
VH: B1 VH
VL: B1 VL
notes: VH and VL of avelumab as in the cited complex with PD-L1, PDB 5GRJ; The parent antibody is IgG1; the scFv was used for SPR; Its preparation may be told in the supplementary information
- Kd [2]: 0.0467 nM

From article PMC5777972 (Protein & Cell, 2017)
